Patent US20210380703A1 (RIGEL PHARMACEUTICALS, published 2021)

Legend:
Human ACVR2A = target: T1, Human ACVR2A (human, UniProt P27037 20-135, limits assumed); assay: ELISA
T1 construct: also called activin receptor, type II A
In short: (§1)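 mAb binding by ELISA; antigens: hu ACVR2A, mu ACVR2A; pos ctrl biotinylated goat anti-hu kappa LC; neg ctrl hu Fc.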

Mouse ACVR2A = Mouse ACVR2A (mouse, UniProt P27038 20-135, limits assumed); assay: ELISA
In short: as §1

Goat anti-Human Kappa = target: T2, Goat anti-Human Kappa; assay: ELISA, positive control
T2 construct: Positive control of the ELISA; also called biotinylated goat anti-human kappa light chain
In short: as §1
Also: test concentration or dose not given here.

Mouse ACVR2A, sequence (P27038 20-135 limits assumed): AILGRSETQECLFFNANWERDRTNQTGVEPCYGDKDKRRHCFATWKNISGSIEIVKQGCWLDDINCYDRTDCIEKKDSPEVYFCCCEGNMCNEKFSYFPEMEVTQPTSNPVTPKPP
T1 sequence (P27037 20-135 limits assumed): as the sequence (P27038 20-135 limits assumed) above, with R20K, I73V counted along it

Row | Binder | optical density (Human ACVR2A) [OD] | optical density (Mouse ACVR2A) [OD] | optical density (Goat anti-Human Kappa) [OD]
1 | 370_G09 (antibody, V domains shown) VH: EVQLLESGGGLVQPGGSLRLSCAASGFTFSSYGMNWVRQAPGKGLEWVAGINYNGGYKSYADSVKGRFTISRDNSKNTLYLQMNSLRAEDTAVYYCARSANWHDTALDYWGQGTLVTVSS VL: DIQMTQSPSSLSASVGDRVTITCRASQSILSYVNWYQQKPGKAPKLVIYAATSRASGVPSRFSGSGSGTDFTLTISSLQPEDFATYYCQQSYESPLTFGGGTKVEIK | 3.01 | 3.14 | 3.64
2 | 371_A03 (antibody, V domains shown) VH: EVQLLESGGGLVQPGGSLRLSCAASGFTFSDYGMNWVRQAPGKGLEWVANINYNGGYTGYADSVKGRFTISRDNSKNTLYLQMNSLRAEDTAVYYCARSANWHDTALDYWGQGTLVTVSS VL: DIQMTQSPSSLSASVGDRVTITCRASQSILSYLNWYQQKPGKAPKLVIYATTSRASGVPSRFSGSGSGTDFTLTISSLQPEDFATYYCQQSYESPLTFGGGTKVEIK | 2.84 | 2.62 | 3.56
3 | 370_H01 (antibody, V domains shown) VH: EVQLLESGGGLVQPGGSLRLSCAASGFTFSSYSMNWVRQAPGKGLEWVSGINYNSGYKGYADSVKGRFTISRDNSKNTLYLQMNSLRAEDTAVYYCARSANWHDTALDYWGQGTLVTVSS VL: DIQMTQSPSSLSASVGDRVTITCRASQSIISYLNWYQQKPGKAPKLLIYAVTSRASGVPSRFSGSGSGTDFTLTISSLQPEDFATYYCQQSYDTPLTFGGGTKVEIK | 3.31 | 3.18 | 3.65
4 | 371_A06 (antibody, V domains shown) VH: EVQLLESGGGLVQPGGSLRLSCAASGFTFSSYGMNWVRQAPGKGLEWVAGINYNGGYTSYADSVKGRFTISRDNSKNTLYLQMNSLRAEDTAVYYCARSANWHDTALDYWGQGTLVTVSS VL: DIQMTQSPSSLSASVGDRVTITCRASQSILTYLNWYQQKPGKAPKLVIYAATSRHSGVPSRFSGSGSGTDFTLTISSLQPEDFATYYCQQSYDSPLTFGGGTKVEIK | 2.65 | 2.79 | 3.51
5 | 371_B06 (antibody, V domains shown) VH: EVQLLESGGGLVQPGGSLRLSCAASGFTFDSYSMNWVRQAPGKGLEWVAGINYNGGYKSYADSVKGRFTISRDNSKNTLYLQMNSLRAEDTAVYYCARSANWHDTALDYWGQGTLVTVSS VL: DIQMTQSPSSLSASVGDRVTITCRASQSILTYVNWYQQKPGKAPKLVIYAATSRHSGVPSRFSGSGSGTDFTLTISSLQPEDFATYYCQQSYNLPLTFGGGTKVEIK | 2.69 | 2.71 | 3.3
6 | 370_H09 (antibody, V domains shown) VH: EVQLLESGGGLVQPGGSLRLSCAASGFTFSSYGMNWVRQAPGKGLEWVANINYNGGYTSYADSVKGRFTISRDNSKNTLYLQMNSLRAEDTAVYYCARSANWHDTALDYWGQGTLVTVSS VL: DIQMTQSPSSLSASVGDRVTITCRASQSIVSYVNWYQQKPGKAPKLLIYAATSRASGVPSRFSGSGSGTDFTLTISSLQPEDFATYYCQQSYDNPLTFGGGTKVEIK | 2.95 | 3.28 | 3.54
7 | 371_A08 (antibody, V domains shown) VH: EVQLLESGGGLVQPGGSLRLSCAASGFTFSSYGMHWVRQAPGKGLEWVSSINYNGGYTSYADSVKGRFTISRDNSKNTLYLQMNSLRAEDTAVYYCARSANWHDTALDYWGQGTLVTVSS VL: DIQMTQSPSSLSASVGDRVTITCRASQSILSYLNWYQQKPGKAPKLVIYAATSRASGVPSRFSGSGSGTDFTLTISSLQPEDFATYYCQQSYELPLTFGGGTKVEIK | 1.06 | 1.16 | 2.44
8 | 370_G11 (antibody, V domains shown) VH: EVQLLESGGGLVQPGGSLRLSCAASGFTFSSYSMNWVRQAPGKGLEWVASINYNSGYTSYADSVKGRFTISRDNSKNTLYLQMNSLRAEDTAVYYCARSANWHDTHLDYWGQGTLVTVSS VL: DIQMTQSPSSLSASVGDRVTITCRASQSIVSYLNWYQQKPGKAPKLVIYAATSRASGVPSRFSGSGSGTDFTLTISSLQPEDFATYYCQQSYSLPLTFGGGTKVEIK | 2.98 | 3.07 | 3.72
9 | 371_A07 (antibody, V domains shown) VH: EVQLLESGGGLVQPGGSLRLSCAASGFTFSDYSMNWVRQAPGKGLEWVSNINYNGGYKSYADSVKGRFTISRDNSKNTLYLQMNSLRAEDTAVYYCARSANWHDTALDYWGQGTLVTVSS VL: DIQMTQSPSSLSASVGDRVTITCRASQSILSYLNWYQQKPGKAPKLVIYATTSRASGVPSRFSGSGSGTDFTLTISSLQPEDFATYYCQQSYDLPLTFGGGTKVEIK | 2.88 | 3.06 | 3.65
10 | 370_G10 (antibody, V domains shown) VH: EVQLLESGGGLVQPGGSLRLSCAASGFTFSDYGMNWVRQAPGKGLEWVSGINYNSGYTSYADSVKGRFTISRDNSKNTLYLQMNSLRAEDTAVYYCARSANWHDTALDYWGQGTLVTVSS VL: DIQMTQSPSSLSASVGDRVTITCRASQSISSYLNWYQQKPGKAPKLLIYVVNNRASGVPSRFSGSGSGTDFTLTISSLQPEDFATYYCQQSYENPLTFGGGTKVEIK | 2.98 | 2.74 | 3.49
11 | 371_A12 (antibody, V domains shown) VH: EVQLLESGGGLVQPGGSLRLSCAASGFTFDSYSMNWVRQAPGKGLEWVAGINYNSGYTSYADSVKGRFTISRDNSKNTLYLQMNSLRAEDTAVYYCARSANWHDTALDYWGQGTLVTVSS VL: DIQMTQSPSSLSASVGDRVTITCRASQSILSYVNWYQQKPGKAPKLVIYAATSLASGVPSRFSGSGSGTDFTLTISSLQPEDFATYYCQQSYDTPLTFGGGTKVEIK | 3.17 | 3.3 | 3.63
12 | 371_B07 (antibody, V domains shown) VH: EVQLLESGGGLVQPGGSLRLSCAASGFTFDSYSMNWVRQAPGKGLEWVAGINYNGGYTSYADSVKGRFTISRDNSKNTLYLQMNSLRAEDTAVYYCARSANWHDTALDYWGQGTLVTVSS VL: DIQMTQSPSSLSASVGDRVTITCRASQSILTYVNWYQQKPGKAPKLLIYAATSRASGVPSRFSGSGSGTDFTLTISSLQPEDFATYYCQQSYELPLTFGGGTKVEIK | 2.78 | 3.04 | 3.33

Second part, the binder after the results:

Row | optical density (Human ACVR2A) [OD] | optical density (Mouse ACVR2A) [OD] | optical density (Goat anti-Human Kappa) [OD] | Binder
13 | 2.95 | 3.1 | 3.66 | 371_F04 (antibody, V domains shown) VH: EVQLLESGGGLVQPGGSLRLSCAASGFTFDSYSMNWVRQAPGKGLEWVAGINYNSGYKGYADSVKGRFTISRDNSKNTLYLQMNSLRAEDTAVYYCARSANWHDTALDYWGQGTLVTVSS VL: DIQMTQSPSSLSASVGDRVTITCRASQSILSYLNWYQQKPGKAPKLLIYAATSRHSGVPSRFSGSGSGTDFTLTISSLQPEDFATYYCQQSYNNPLTFGGGTKVEIK
14 | 3.01 | 3.24 | 3.6 | 371_C03 (antibody, V domains shown) VH: EVQLLESGGGLVQPGGSLRLSCAASGFTFSSYSMNWVRQAPGKGLEWVSNINYNGGYKGYADSVKGRFTISRDNSKNTLYLQMNSLRAEDTAVYYCARSANWHDTALDYWGQGTLVTVSS VL: DIQMTQSPSSLSASVGDRVTITCRASQSILSYLNWYQQKPGKAPKLVIYATTSRASGVPSRFSGSGSGTDFTLTISSLQPEDFATYYCQQSYSTPLTFGGGTKVEIK
15 | 2.2 | 2.55 | 3.43 | 371_F08 (antibody, V domains shown) VH: EVQLLESGGGLVQPGGSLRLSCAASGFTFDDYSMNWVRQAPGKGLEWVSGINYNGGYTGYADSVKGRFTISRDNSKNTLYLQMNSLRAEDTAVYYCARSANWHDTALDYWGQGTLVTVSS VL: DIQMTQSPSSLSASVGDRVTITCRASQSIVSYVNWYQQKPGKAPKLVIYAATSRHSGVPSRFSGSGSGTDFTLTISSLQPEDFATYYCQQSYESPLTFGGGTKVEIK
16 | 2.41 | 2.79 | 3.46 | 371_F06 (antibody, V domains shown) VH: EVQLLESGGGLVQPGGSLRLSCAASGFTFDSYSMNWVRQAPGKGLEWVANINYNGGYTSYADSVKGRFTISRDNSKNTLYLQMNSLRAEDTAVYYCARSANWHDTALDYWGQGTLVTVSS VL: DIQMTQSPSSLSASVGDRVTITCRASQSIVSYLNWYQQKPGKAPKLVIYAATSRHSGVPSRFSGSGSGTDFTLTISSLQPEDFATYYCQQSYNSPLTFGGGTKVEIK
17 | 1.48 | 1.55 | 3.32 | 371_D06 (antibody, V domains shown) VH: EVQLLESGGGLVQPGGSLRLSCAASGFTFDDYSMNWVRQAPGKGLEWVAGINYNGGYTSYADSVKGRFTISRDNSKNTLYLQMNSLRAEDTAVYYCARSANWHDTALDYWGQGTLVTVSS VL: DIQMTQSPSSLSASVGDRVTITCRASQSIISYVNWYQQKPGKAPKLLIYAATSRASGVPSRFSGSGSGTDFTLTISSLQPEDFATYYCQQSYSTPLTFGGGTKVEIK
18 | 2.89 | 2.94 | 2.17 | 371_D09 (antibody, V domains shown) VH: EVQLLESGGGLVQPGGSLRLSCAASGFTFSSYSMNWVRQAPGKGLEWVSNINYNSGYTGYADSVKGRFTISRDNSKNTLYLQMNSLRAEDTAVYYCARSANWHDTALDYWGQGTLVTVSS VL: DIQMTQSPSSLSASVGDRVTITCRASQSILTYLNWYQQKPGKAPKLVIYAATSRASGVPSRFSGSGSGTDFTLTISSLQPEDFATYYCQQSYNNPLTFGGGTKVEIK
19 | 2.41 | 2.62 | 3.68 | 371_F01 (antibody, V domains shown) VH: EVQLLESGGGLVQPGGSLRLSCAASGFTFSSYSMNWVRQAPGKGLEWVAGINYNGGYTGYADSVKGRFTISRDNSKNTLYLQMNSLRAEDTAVYYCARSANWHDTALDYWGQGTLVTVSS VL: DIQMTQSPSSLSASVGDRVTITCRASQSILTYVNWYQQKPGKAPKLVIYAATSLASGVPSRFSGSGSGTDFTLTISSLQPEDFATYYCQQSYNNPLTFGGGTKVEIK
